# Laboratory results: US20230357391A1 (EXELIXIS, published 2023)
# Numbering of substitutions follows the chain as printed. Several values for one entry are separate records, joined by “and”; a condition that tells them apart may be missing. Equal values may be shown once.
# B1: Antibody C40 (antibody, human IgG1, kappa, V domains shown)
# VH: EVQLVESGGGLVQPGGSLRLSCAASGFTFSYYYIHWVRQAPGKGLEWVAWIDPYGHSTTYADSVKGRFTISADTSKNTAYLQMNSLRAEDTAVYYCARGGRGAMDYWGQGTLVTAST
# VL: DIQMTQSPSSLSASVGDRVTITCRASQSVSSAVAWYQQKPGKAPKLLIYSASSLYSGVPSRFSGSRSGTDFTLTISSLQPEDFATYYCQQRYSSLLTFGQGTKVEIKR
# notes: Full length IgG
# B2: Antibody C59 (antibody, human IgG1, kappa, V domains shown)
# VH: B1 VH with S30T, Y31S, W50Y, P53S, Y54K, G55H, H56G, S57T, T59Q, G102S
# VL: B1 VL with Y92T, S93T
# notes: Full length IgG
# Tests used:
# human CD47 on cells [1] = target: T1, human CD47 on cells (human, UniProt Q08722 19-323); test: cell-based or functional assay
# human CD47 on cells [2] = target: T1, human CD47 on cells; test: flow cytometry, MDA-MB-231 cells
# Protocol: Cells were harvested at 70-90% confluence on the day of the assay. Cells were collected by centrifugation at 200xg for 5 minutes and media was removed. Cells were resuspended at 2×10⁶ cells per mL in cold PBS. An 8-point antibody dilution series (2x concentration) was prepared in PBS to cover the expected binding affinities of the antibodies being tested. […] 50 µL per well of cell suspension was added. Plates were placed at 4° C. for 45-60 minutes.
# Cells were collected by centrifugation at 400xg for 7 minutes and secondary antibody was removed. Cells were resuspended in 50 µL per well of PBS and analyzed by flow cytometry. Binding curves were calculated using the mean fluorescence intensity (MFI) of the FITC fluorescence signal on the cells.
# mouse CD47 = target: T2, mouse CD47 (mouse, UniProt Q61735-2 19-158, limits assumed, biotinylated); test: BLI (Octet), mouse CD47 on sensor; X = no mouse cross-reactivity
# T2 construct: also called mCD47
# T2 sequence (looked up): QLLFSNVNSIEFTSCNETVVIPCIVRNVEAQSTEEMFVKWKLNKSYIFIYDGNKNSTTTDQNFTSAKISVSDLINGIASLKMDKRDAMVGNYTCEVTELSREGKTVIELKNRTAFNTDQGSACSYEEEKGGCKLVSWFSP
# Description: Mouse CD47 was obtained from Acro Biosystems (Acro Cat. No. CD7-M82E4, Acro Cat. No. CD7-M522b) and biotinylated using standard protocols. The free biotin was removed by extensive dialysis against PBS. Biotinylated antigen (CD47) was immobilized on a streptavidin sensor. The cross-reactive antibodies were identified by the association to mouse CD47 using Octet.
Binder,IC50 (human CD47 on cells [1]),EC50 (human CD47 on cells [2]),binding result (mouse CD47)
B1,5.38 nM,> 1000 nM,
B2,140 nM,200 to 1000 nM and 550 nM,no binding
